Test results reported in paper PMC11084278 (International Journal of Molecular Sciences, 2024).
Marks after values point to notes of the source that are not given here. Values belong to the molecule of their own block, whether it stands above or below them.

What was measured:
NLuc-CXCR3 [1] = target: T1, NLuc-CXCR3 (Homo sapiens, UniProt P49682); assay: Multiplex NanoBRET binding, mixed NLuc-CXCR3 and NLuc-CXCR4 membranes, read at 520 nm (CXCL10-AZD488); conditions: mixed (1:1) NLuc-CXCR3 and NLuc-CXCR4 membranes; both CXCL10-AZD488 and CXCL12-AZD647, 10 nM each
T1 construct: 5HT3a signal peptide (N); expressed in transfected cells; host or cells: HEK293T, transient; membrane preparation
T1 sequence (P49682 2-368 limits assumed): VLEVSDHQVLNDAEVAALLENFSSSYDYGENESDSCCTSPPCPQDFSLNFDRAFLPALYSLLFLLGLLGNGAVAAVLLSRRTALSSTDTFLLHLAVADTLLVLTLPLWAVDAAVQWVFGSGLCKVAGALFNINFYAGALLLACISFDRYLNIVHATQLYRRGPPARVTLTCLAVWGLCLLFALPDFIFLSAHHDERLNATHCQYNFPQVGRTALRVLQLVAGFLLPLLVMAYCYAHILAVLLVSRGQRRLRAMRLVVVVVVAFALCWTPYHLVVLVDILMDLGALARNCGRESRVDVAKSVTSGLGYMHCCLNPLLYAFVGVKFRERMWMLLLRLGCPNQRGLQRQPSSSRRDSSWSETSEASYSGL
Procedure: (§1) HEK293T cells (2 × 10^6) were seeded in 10 cm^2 culture dishes. After 24 h, the cells were transfected with 0.25 µg of plasmid DNA encoding human NLuc-ACKR3, NLuc-CXCR4 or NLuc-CXCR3, and 4.75 µg of pcDEF3 plasmid DNA using 30 µg of linear PEI. After two days, the cells were collected in PBS and centrifuged at 2700 rpm at 4 °C. Next, the cell pellet was resuspended in ice-cold membrane buffer (15 mM of Tris, 0.3 mM of EDTA, 2 mM of MgCl2, pH 7.4 at 4 °C) and homogenized by plunging the pestle using 10 strokes at 1100 rpm. The cell homogenates were exposed to two freeze and thaw cycles using liquid nitrogen and were centrifuged at 25,000 rpm. The pellet was resuspended in Tris-sucrose buffer (20 mM of Tris, 250 mM of Sucrose, pH 7.4 at 4 °C). Finally, cell membranes were homogenized using a 23-gauge needle, followed by snap-freezing with liquid nitrogen and then stored at −80 °C.
(§2) NanoBRET was measured after 1 h of incubation at room temperature, as described above.
For saturation binding experiments, the KD was obtained using one-site total and non-specific binding. For binding experiments, pIC50 values were obtained using a one-site pIC50 model. The equilibrium dissociation constants (Ki) of unlabeled ligands were subsequently calculated using the Cheng−Prusoff equation. […]

NLuc-CXCR3 [2] = target: T1, NLuc-CXCR3; assay: NanoBRET competition binding versus CXCL10-AZD488 on NLuc-CXCR3 membranes only (520 nm)
Procedure: as §1, §2
(§3) For saturation binding experiments, the KD was obtained using one-site total and non-specific binding. For binding experiments, pIC50 values were obtained using a one-site pIC50 model. The equilibrium dissociation constants (Ki) of unlabeled ligands were subsequently calculated using the Cheng−Prusoff equation. (1) […] where [L] is the concentration of the labeled ligand and KD is the equilibrium dissociation constant of the labeled ligand.

NLuc-CXCR4 [3] = target: T2, NLuc-CXCR4 (Homo sapiens, UniProt P61073); assay: Multiplex NanoBRET binding, mixed NLuc-CXCR3 and NLuc-CXCR4 membranes, read at 640 nm (CXCL12-AZD647); set-up: 5HT3a signal peptide (N); host or cells: HEK293T, transient; membrane preparation; conditions: mixed (1:1) NLuc-CXCR3 and NLuc-CXCR4 membranes; both CXCL10-AZD488 and CXCL12-AZD647, 10 nM each
Procedure: as §1, with “After 24 h, the cells were transfected with 0.25 µg of plasmid DNA encoding human NLuc-ACKR3, NLuc-CXCR4 or NLuc-CXCR3, and 4.75 µg of pcDEF3 plasmid DNA using 30 µg of linear PEI.” left out
as §3

NLuc-ACKR3 [4] = target: NLuc-ACKR3 (Homo sapiens, UniProt P25106); assay: NanoBRET competition binding versus AZDye-labeled CXCL12 on NLuc-ACKR3 membranes; set-up: 5HT3a signal peptide (N); host or cells: HEK293T, transient; membrane preparation
Procedure: as §1, with “After 24 h, the cells were transfected with 0.25 µg of plasmid DNA encoding human NLuc-ACKR3, NLuc-CXCR4 or NLuc-CXCR3, and 4.75 µg of pcDEF3 plasmid DNA using 30 µg of linear PEI.” left out
All experiments were analyzed using Graphpad Prism 9.0. For binding experiments, pIC50 values were obtained using a one-site pIC50 model using global fitting with shared non-specific binding values.
as §3

CXCR4 = CXCR4 (Homo sapiens, UniProt P61073); assay: CXCR4-mediated inhibition of isoprenaline-induced intracellular cAMP (FRET-based EPAC sensor) in HEK293 cells; type: cell-based; conditions: HEK293 cells stably expressing CXCR4 and EPAC sensor; 100 nM isoprenaline; mean ± SD
Procedure: Human embryonic kidney 293 cells stably co-expressing CXCR4 and the FRET-based EPAC sensor with mCerulean and mCitrine as a FRET pair were kindly provided by Dr. M. Zimmermann (Interax Biotech, Zurich, Switzerland), and were cultured in DMEM supplemented with 10% FBS and penicillin ([…]), streptomycin ([…]), zeocin (0.06 mg/mL) and G418 (0.6 mg/mL) at 37 °C with 5% CO2.
HEK293 cells stably expressing CXCR4 and a FRET-based EPAC sensor were seeded into a 96-well black plate (0.5 × 10^6/well). […] Fluorescence was measured using the following parameters: excitation at 430–15 nm, and emission at 530–20 and 480–20 nm using the CLARIOstar Plus (BMG Labtech, Ortenberg, Germany). The FRET ratio was calculated by dividing the signal of the acceptor at 530 nm by the donor signal at […].

NLuc-CXCR4 [5] = target: T2, NLuc-CXCR4; assay: NanoBRET saturation binding to HEK293T membranes expressing NLuc-CXCR4; set-up: 5HT3a signal peptide (N); host or cells: HEK293T, transient; membrane preparation; conditions: non-specific binding with 10 µM IT1t, mean ± SD
Procedure: as §1, with “After 24 h, the cells were transfected with 0.25 µg of plasmid DNA encoding human NLuc-ACKR3, NLuc-CXCR4 or NLuc-CXCR3, and 4.75 µg of pcDEF3 plasmid DNA using 30 µg of linear PEI.” left out
as §3

[6] = target: HA-tagged ACKR3 C-terminally fused to SmBit (UniProt P25106)
NLuc-CXCR4 [7] = target: T2, NLuc-CXCR4
NLuc-CXCR4 [8] = target: T2, NLuc-CXCR4; assay: FRET or BRET; NanoBRET competition binding against CXCL12-AZD488 (0.3 nM on NLuc-ACKR3, 10 nM on NLuc-CXCR4 HEK293T membranes) with increasing unlabeled ligand; HBSS with 0.2% BSA; 1 h at room temperature; Ki by Cheng-Prusoff
NLuc-CXCR4 [9] = target: T2, NLuc-CXCR4; assay: FRET or BRET; NanoBRET competition binding against CXCL12-AZD546 (0.3 nM on NLuc-ACKR3, 10 nM on NLuc-CXCR4 HEK293T membranes) with increasing unlabeled ligand; HBSS with 0.2% BSA; 1 h at room temperature; Ki by Cheng-Prusoff
NLuc-CXCR4 [10] = target: T2, NLuc-CXCR4; assay: FRET or BRET; NanoBRET competition binding against CXCL12-AZD594 (0.3 nM on NLuc-ACKR3, 10 nM on NLuc-CXCR4 HEK293T membranes) with increasing unlabeled ligand; HBSS with 0.2% BSA; 1 h at room temperature; Ki by Cheng-Prusoff
NLuc-CXCR4 [11] = target: T2, NLuc-CXCR4; assay: FRET or BRET; NanoBRET competition binding against CXCL12-AZD647 (0.3 nM on NLuc-ACKR3, 10 nM on NLuc-CXCR4 HEK293T membranes) with increasing unlabeled ligand; HBSS with 0.2% BSA; 1 h at room temperature; Ki by Cheng-Prusoff
NLuc-ACKR3 [12] = target: T3, NLuc-ACKR3 (human, UniProt P25106 1-362); assay: FRET or BRET; NanoBRET competition binding against CXCL12-AZD488 (0.3 nM on NLuc-ACKR3, 10 nM on NLuc-CXCR4 HEK293T membranes) with increasing unlabeled ligand; HBSS with 0.2% BSA; 1 h at room temperature; Ki by Cheng-Prusoff; conditions: one partner purified
T3 construct: ACKR3 (CXCR7), human; NLuc is preceded by the 5HT3a signal peptide and fused via a Gly-Ser linker (BamHI site) to ACKR3, in pcDNA3.1; also called CXCR7; source: HEK293T, transiently transfected, membrane preparation; not shown: NLuc, N-terminal, kept

NLuc-ACKR3 [13] = target: T3, NLuc-ACKR3; assay: FRET or BRET; NanoBRET competition binding against CXCL12-AZD546 (0.3 nM on NLuc-ACKR3, 10 nM on NLuc-CXCR4 HEK293T membranes) with increasing unlabeled ligand; HBSS with 0.2% BSA; 1 h at room temperature; Ki by Cheng-Prusoff; conditions: one partner purified
NLuc-ACKR3 [14] = target: T3, NLuc-ACKR3; assay: FRET or BRET; NanoBRET competition binding against CXCL12-AZD594 (0.3 nM on NLuc-ACKR3, 10 nM on NLuc-CXCR4 HEK293T membranes) with increasing unlabeled ligand; HBSS with 0.2% BSA; 1 h at room temperature; Ki by Cheng-Prusoff; conditions: one partner purified
NLuc-ACKR3 [15] = target: T3, NLuc-ACKR3; assay: FRET or BRET; NanoBRET competition binding against CXCL12-AZD647 (0.3 nM on NLuc-ACKR3, 10 nM on NLuc-CXCR4 HEK293T membranes) with increasing unlabeled ligand; HBSS with 0.2% BSA; 1 h at room temperature; Ki by Cheng-Prusoff; conditions: one partner purified
[16] = 0.3 nM probe, Cheng-Prusoff, mean ± SD

Molecule: CC1(C)CN2C(CSC(=NC3CCCCC3)NC3CCCCC3)=CSC2=N1 [IT1t]
pKi, Multiplex at 520 nm (NLuc-CXCR3 [1]): no clear competition binding curve was detected

Molecule: CXCL12-AZD546: CXCL12 tagged at the C-terminus with fluorescent AZDye 546 by click chemistry
cAMP by CXCR4 (pEC50) (CXCR4): 8.6 ± 0.3 | pKD for CXCR4 (NLuc-CXCR4 [5]): 8.0 ± 0.0

Molecule: CXCL12-AZD594: CXCL12 tagged at the C-terminus with fluorescent AZDye 594 by click chemistry
cAMP by CXCR4 (pEC50) (CXCR4): 8.9 ± 0.2 | pKD for CXCR4 (NLuc-CXCR4 [5]): 7.6 ± 0.1

Molecule: CXCL12-AZD647: CXCL12 tagged at the C-terminus with fluorescent AZDye 647 by click chemistry
pKD for CXCR4 (NLuc-CXCR4 [5]): 7.9 ± 0.1

Molecule: Human recombinant CXCL12 (unlabeled) (from UniProt P48061 22-93) (ligand)
pEC50 of β-arrestin2 recruitment to ACKR3 (NanoBiT complementation, HEK293T cells) [6]: 8 | pEC50 of inhibition of isoprenaline-induced cAMP (FRET-based EPAC sensor) in HEK293 cells stably expressing CXCR4 (not the NLuc fusion) (NLuc-CXCR4 [7]): 9.7 | pKi (NLuc-CXCR4 [8]): 8.4 | pKi (NLuc-CXCR4 [9]): 9 | pKi (NLuc-CXCR4 [10]): 8.2 | pKi (NLuc-CXCR4 [11]): 8.4

B1: CXCL11 (unlabeled) (ligand, UniProt O14625 22-94, looked up)
chain: FPMFKRGRCLCIGPGVKAVKVADIEKASIMYPSNNCDKIEVIITLKENKGQRCLNPKSKQARLIIKKVERKNF
notes: CXCL11, unlabeled chemokine
pKi (NLuc-ACKR3 [12]): 9.4 | pKi (NLuc-ACKR3 [13]): 9.4 | pKi (NLuc-ACKR3 [14]): 9.5 | pKi (NLuc-ACKR3 [15]): 9.2

Second part, led by results:

pKi, CXCR3 Only at 520 nm (NLuc-CXCR3 [2]; 10 nM CXCL10-AZD488, NLuc-CXCR3 membranes only): 8.8 ± 0.2 | fold higher than the Ki from competition binding with [125I]-CXCL11 (NLuc-CXCR3 [2]; comparison with ref 23): 10 fold | fold lower than the Ki from competition binding with [3H]-VUF11211 (NLuc-CXCR3 [2]; comparison with ref 23): 1.5 fold | pKi, Multiplex at 520 nm (NLuc-CXCR3 [1]): 8.8 ± 0.1
Molecule: CCNC(=O)c1cnc(N2CCN(C3CCN(Cc4ccc(Cl)cc4)CC3)[C@@H](CC)C2)c(Cl)c1 [VUF11211]
pKi, Multiplex at 640 nm (NLuc-CXCR4 [3]): no clear competition binding curve was detected

Binding affinity (pKi) for NLuc-ACKR3, probe CXCL12-AZD488 (NLuc-ACKR3 [4]; [16]): 7.9 ± 0.1 ^b | Binding affinity (pKi) for NLuc-ACKR3, probe CXCL12-AZD546 (NLuc-ACKR3 [4]; [16]): 7.9 ± 0.1 | Binding affinity (pKi) for NLuc-ACKR3, probe CXCL12-AZD594 (NLuc-ACKR3 [4]; [16]): 8.1 ± 0.2 | Binding affinity (pKi) for NLuc-ACKR3, probe CXCL12-AZD647 (NLuc-ACKR3 [4]; [16]): 8.2 ± 0.1 | fold lower affinity for ACKR3 when tested in competition with CXCL12-AZD488 (NLuc-ACKR3 [4]; compared with the other three probes): 5 fold
Molecule: COc1cc(C(=O)N(CCC2CCCN2C)CC(C)=Cc2ccccc2F)cc(OC)c1OC (centres unmarked) [VUF15485]
